Article PMC7893173

What was measured:
[1] = target: HSV-1 nuclear egress complex NEC220 (UL31 1–306 with UL34 1–220) (herpes simplex virus type 1) (UniProt P10215)
[2] = target: HSV-1 nuclear egress complex NEC220 (UL31 1–306 with UL34 1–220) (herpes simplex virus type 1) (UniProt P10215); remark: listed apart in the source
[3] = target: HSV-1 nuclear egress complex NEC220 (UL31 1–306 with UL34 1–220) (herpes simplex virus type 1) (UniProt P10215); remark: listed apart in the source

## HSV-1 UL25∆44 Q72A (from UniProt P10209 45-580) (domain or fragment)
[1]
  inhibition of NEC220-mediated budding of giant unilamellar vesicles in vitro (1 μM NEC220; not inhibitory at NEC:UL25 1:1, value at 1:10) (% reduction in budding): 90

## UL25^native(45–94) peptide (from UniProt P10209 45-94)
[2]
  inhibition of NEC220-mediated budding of giant unilamellar vesicles in vitro (1 μM NEC220; NEC:peptide 1:0.1, 1:0.3, 1:0.6, 1:1 and 1:10; maximal effect at 1:1) (% reduction in budding): 75

B1: (EAEKAAK)7EAEK peptide (peptide)
peptide: EAEKAAKEAEKAAKEAEKAAKEAEKAAKEAEKAAKEAEKAAKEAEKAAKEAEK
[3]
  inhibition of NEC220-mediated budding of giant unilamellar vesicles in vitro (1 μM NEC220; not inhibitory at NEC:peptide 1:1, value at 1:10) (% reduction in budding): 50
